Series [1] addresses T1, FprA1 (Clostridium acetobutylicum, UniProt Q97K92).
T1 sequence (Q97K92 2-392): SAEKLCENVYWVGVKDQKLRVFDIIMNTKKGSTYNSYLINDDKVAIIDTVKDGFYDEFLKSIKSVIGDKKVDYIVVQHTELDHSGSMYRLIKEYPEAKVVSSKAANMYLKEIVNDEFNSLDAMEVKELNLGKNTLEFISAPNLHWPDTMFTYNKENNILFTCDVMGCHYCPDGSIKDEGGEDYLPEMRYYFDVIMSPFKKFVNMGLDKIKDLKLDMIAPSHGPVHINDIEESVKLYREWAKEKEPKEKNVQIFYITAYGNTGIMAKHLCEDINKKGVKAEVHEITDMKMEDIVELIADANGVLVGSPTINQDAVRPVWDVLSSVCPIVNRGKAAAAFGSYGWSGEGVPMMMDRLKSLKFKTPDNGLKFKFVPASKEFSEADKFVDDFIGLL
The experiment in a line: TLC of the flavin cofactor. The series is classed as binding. The settings on record: co-purified oxidized flavin, 378 and 450 nm bands.

Series [2] deals with the molecule itself. The experiment in a line: SEC. (In general: In gel filtration, larger molecules generally elute earlier.)
Series [3] deals with the molecule itself. The experiment in a line: SEC. The source holds these as a separate data set.

Read-outs that look alike come from different tables or passages of the source.

The text below walks through data of publication PMC2629652 (FEBS letters, 2008).

Take `Cc1cc2nc3c(=O)[nH]c(=O)nc-3n(C[C@H](O)[C@H](O)[C@H](O)COP(=O)(O)O)c2cc1C` [FMN]: the “TLC of the flavin cofactor; UV-visible absorption of purified protein” value in series [1] was “TLC analysis identified FMN as the flavin cofactor in both FprA1 and FprA2”.

B1: C. acetobutylicum flavo-diiron protein FprA1 (enzyme, UniProt Q97K92 1-392, looked up)
chain: MSAEKLCENVYWVGVKDQKLRVFDIIMNTKKGSTYNSYLINDDKVAIIDTVKDGFYDEFLKSIKSVIGDKKVDYIVVQHTELDHSGSMYRLIKEYPEAKVVSSKAANMYLKEIVNDEFNSLDAMEVKELNLGKNTLEFISAPNLHWPDTMFTYNKENNILFTCDVMGCHYCPDGSIKDEGGEDYLPEMRYYFDVIMSPFKKFVNMGLDKIKDLKLDMIAPSHGPVHINDIEESVKLYREWAKEKEPKEKNVQIFYITAYGNTGIMAKHLCEDINKKGVKAEVHEITDMKMEDIVELIADANGVLVGSPTINQDAVRPVWDVLSSVCPIVNRGKAAAAFGSYGWSGEGVPMMMDRLKSLKFKTPDNGLKFKFVPASKEFSEADKFVDDFIGLL
As to B1, the stoichiometry N – broadly, the number of molecules, sites or subunits per partner or assembly – in series [2] amounted to 2.

B2: C. acetobutylicum flavo-diiron protein FprA2 (enzyme, UniProt Q97GC0 1-400, looked up)
chain: MPAIKIKDNIFSVGVLNPSLRIFDIIMKTEYGTSYNAYLIKGKKNVLIDTVHGRFFDEYLENIKSVIDPSSIDYVIMNHCEPDHSGSLARLYEVAPQIKVIASNAGKIYLKNITNKETLDVKAVKTNDTLDIGNGKVLKFAIAPFLHWPDSMFTILEEDKIAFTCDFLGCHFCEPRMFDTKITYMPKYEKSFKEYYDAIFSPFKPYVVKGLDILDALDLDFIATSHGPILTREGLLAASKQKYRDLSSEIQSTTKYIPIFYCSAYGNTEILANEIASGIKSVLNDANIEMLDIINYDYSDLKEKINICDAFMLGTPTINKDALFPIWELIGGIDAVNCKNKPASAFGSFGWSGEAIPFVISRLKELKLKVFQDGFTCLFVPSEDDIKKAFKFGEDFAKSI
For the molecule B2, the “stoichiometry N” value in series [2] came out at 4; in series [3], 2.
